Here are results for 20 sequences from the DeepSol protein solubility set.

This data set is described as follows: soluble on expression in E. coli; label from the status in PepcDB or PDB records.
Consider “MADKKEKLFSDFSPVSTEQWMEKVTADLKGADFEKKLVWKTNEGFKVKPFYRMEDLEGLKTTDALPGEFPYLRGTKKSNNEWLVRQEIKVECPKEANAKALDILNKGVDSLSFHVKAKELNAEYIETLLNGIQAECVELNFSTCQGHVVELAGLLVAYFQKKDYDVKKLRGSVNYDFFNKMLTRGKEKGDMVQTAKALIEAIQPLPFYRVLNVNAISLNNAGAYISQELGYALAWGNEYMNQLTDAGIPAATVAKKIKFNFGISSNYFLEIAKFRAARMLWANIVASYHPECLRDCDNKGANGECRCAAKMAVHAETSTFNLTLFDAHVNLLRTQTEAMSAALAGVDSMTVVPFDKTYSTPDEFSERLARNQQLLLKEESHFDKVIDPAAGSYYIENLTVSIAKQAWELFLAVEEAGGFYAALKAGTVQAAVNESNKARHKAVAQRREVLLGTNQFPNFNEKAGEKQPIEAKCCCGGDAHTCEKDVDTLVFDRAASEFEALRLETEASGKRPKAFMLTIGNLAMRQARAQYSCNFLACAGYEVIDNLGFETVEAGVEAAMAAKADIVVLCSSDDEYAEYAVPAFKALDGRAMFIVAGAPACMDELKAAGIENFIHVRVNVLDTLKEFNAKLLK”, for which the “soluble on expression in E. coli” value is listed as “not soluble”. The same measure for “SVELSAGQSIIADAAGALGPVNRDDAPAATWREGRVSFSGTPLMQALAEFERYGDTGLVIRDPAVAALKVNGSFDLRQIGAFARALPRVLPVQLSTRDGQTEII”: “not soluble”; for “MGSDKIHHHHHHMLISLEDTNYTLVKEYLEKSVNHHILQRYIDNHNFPIIEKSYHKYLTFESLEEDFTYILKDGIVKQSVLSKYGMEFNLRYVTGLEITSVLNTGYSKDMGEPYNVRIESEKASFYKVRRSAFLKDINEDIELQGYVKDFYHNRLQKSMKKMQCMLTNGRIGAISTQIYDLMTLFGEELPNGQILINFVITNEELGKFCGISTASSVSRILKQLKEKNIIRIDKQHIIITNLDKLKDNIVF”: “not soluble”; for “MSLDVSAYPFFRRDMSWLSFNERVLMEAADRTLPVYDRIKFLSIFSSNLEEFYTVRVAYHQAVLQKRRDRSEAEEDSDADAHILQAIRETVIRQDELYYRIFYDQILPTLEEHGIRLRTHAPTHPDHKAYLRRFFHEEIFPLLYPMLLLPSKVRTFIRSGRVYLAVRLKEKETDEAYSYALLNVPTDGLPRFVELPRLQTDTFYYYSFLEDIIKEHLDVVFPGYEVMDSYSIKVSRDADLLLDAQRPEDLPGEIRKKVKTRKLGAPTRFMYDGRMPDEVLRYICSSCDIDPEEAIRSGNYVNLQDLAMLPNPFAPRLETLTPEPLLSKHLEQAPSLMEGIRRKDYLIHVPYYTYDYVVRLLMEAAISPDVSEIRLTQYRVAENSSIISALEAAAQSGKKVSVFVELKARFDEENNLRLSERMRRSGIRIVYSMPGLKVHAKTALILYHTPAGERPQGIALLSTGNFNETTARIYSDTTLMTANTDIVHDVYRLFRILDGDPEPARFSRLLVARYNMGEAITNLIEREIENVKRGKRGYMLLKMNGLQDKNVITQLYRASEAGVEIDLIVRGICCLVPDMPQSRNIRVTRLVDMYLEHSRIWCFHNGGKEEVFISSADWMKRNLYNRIETACPVLDPTLRREIIDILEIQLRDNIKACRIDSSLNNIYKHNSDEKPVRAQAAIYRYLKGKEETTPAAKEGHHHHHH”: “soluble”. The result for “MGTEFNGLFDEWAHTYDSFVQGEDIQYKEVFAHYEDILEDVVNKSFGNVLEFGVGTGNLTNKLLLAGRTVYGIEPSREMRMIAKEKLPKEFSITEGDFLSFEVPNSIDTIVSTYAFHHLTDDEKNVAIAKYSQLLNKGGKIVFADTIFADQDAYDKTVETSKRKRFPPVSKRFANGILYTYSSYADYFLEHHHHHH” reads “soluble”.

For the sequence NPHLLVKYHSGFFVDGKFLCCQQSCKAAPGCTLWEAY, the “soluble on expression in E. coli” value is given as “soluble”.

With “MGSDKIHHHHHHMKRMSCLLLGGLLLSGCGKEEAPPEPIRPVVFVEAQPESMQDFGRFAGNIQARYQSVLGFRVAGRIARRNVDVGSEVKKGDLLATLDPTDQQNNVRGRQGDLANVQAQWINAQANARRQQELFDRGVGAQAQLDVALTDLKTASSSLEQAKAAEQQARDQLSYSELHSDHDAVVTEWKVEAGQVVTAGQEVVTLARPDIKEAVIDLPDALADQLPRDVVFTVASQLNPDINTTATIREIEPQADRTTRTRRTRLSLAETPVAFRLGTAISVTLSSTITARMRLPINALQEVDGKRQIWIVDPQSQTVNPRAVNITSRDNDSFVLADGVKAGEKVVSAGVNSLKPGQKVKVDEESPR”, the “soluble on expression in E. coli” value is recorded as “not soluble”. The same measure for “MVTFASGDMLADDLGRFDYVVAMDSLIYYTDADIAAALDRLGARTRHSVVFTVAPRTPFLMAFWTMGKLFPRSDRSPVMIPHPFQPLNEATGGRLVKVGRVSRGFYISECLEFRPLEHHHHHH”: “soluble”.

For the sequence “MEEEVSRKTVAISVQAAKLTGRVLFMACQKFLAGVQKHNRDALTPHGRQTVKQLMGHTGQSNSIQLKGDARLFDRVARKFNVDYAFHKVGPKDYLLFFKAGQADAITAAFSEYTKRVMARQNDKPSIRRGLRQAMGRVKPRQKEREKTREAVQER”, the “soluble on expression in E. coli” value was “not soluble”. The same measure for “MTQTVDIENTDNVLSRRDSNAETQQMLRQRFETQPDLMPAQLASELGIAELEVVTALPQAQRVFLPLAHMDELLQSLPEWGSLTTIVMLSGSVFEFKGDFPQGKFAHGYYNLYSKGDGLHGHLKLDGMRAIALISRPFRGSESHSINFFGPQGEVVFKVYLGRDKQRVLFPDQVRRFKALAATFAD”: “soluble”. With “MSLKALNKETAPKVQRPERIIQFGEGNFLRAFVDWIIYNMNQKTDFNSSVVVVQPIDKGMVDMLNAQDDLYHVNLQGLDKGEVVNSLTMIDVISRALNPYTQNDEFMKLAEQPEMRFVISNTTEAGIAFDPTCKLEDAPASSYPGKLTQLLYHRFKTFNGDKTKGLIIFPCELIFLNGHKLKETIYQYIDLWNLGNEFKTWFEEACGVYATLVDRIVPGFPRKDIAAIKEKIQYDDNLVVQAEIFHLWVIEAPQEVAKEFPADKAGLNVLFVPSEAPYHERKVTLLNGPHTVLSPVAYLSGVNIVRDACQHEVIGKYIHKVMFDELMETLNLPKEELKKFAEDVLERFNNPFVDHAVTSIMLNSFPKYETRDLPGLKTYLERKGELPKGLVLGLAAIITYYKGGVRADGAEIVPNDAPEIMNLLKELWATGCTKKVTEGVLAAEFIWGEDLNKIPGLAAAVKADLDSIQEKGMLETVKGILEGHHHHHH”, the “soluble on expression in E. coli” value was “soluble”. The same measure for “MIAWYGMALDQAVVNRPVKAKLYSKIVDSVECTACSRYCRLKPGKTGFCGVRKNIDGDLYLLVYGLPAAINVDPIEKKPVLHMYPGARIFSLSTVGCSFACQYCQNYDISQRRTITGYHYDPEEIVEEALSMGCQGIAYTYNEPSIFMEYAHDIGVIARRHGLINIFVTNGFETPEAIDYARDFLDAATVDFKGNASDEFYRKYISVPSARPIFETLANLKSAGIHVEVTDLVVPEVGDRLEDARTMLERIMDILGEYVPISFLRFHPDYRMMDLPDTPVETLRKHHDLAVSMGFKYVYIGNVPGYGENTYCPNCGNLLIERFVFSSKVIGLDRNGRCKKCGYDPQIPLMKEKRADYIS”: “not soluble”. The same measure for “MGSSHHHHHHSSGLVPRGSHMASEVDKRREINNEHPLLMMPLYANGEEFNQGKYTFWGGDTLTGKWENIPDDLKPYTVIQLHPDDLPKRDGAARDFYEHMLEEAAKYVNPKTGKNEPIPVILTVYTAGNMPYYTSAHWLSTSWIDKMYQKYPNLHGIFSTANYWIWANDIENKAADYLKVSAKNGGYFIWAEQNNGSAIEKAFGKNGKIAFQKSVDKYWKNLIFMFKNTPAAEGNDSTTESYMKGLWLSNHTYQWGGLMDTWKWYETGKWKLFASGNIGKSQGDRQWLTEPESMLGEEALGVYLNGGVVYNFEHPAYTYGVNNKESLLFSEVIKEFFRYVIAHPAPSKEKVLEDTKVFIHGDYSNKGNGKFFVNVNTDREQTPLYMTGRYNVIPAIPGVLKTDKLKESVSSSRIQIKEITSPEFSSTQARKEYLNKLYPMNYEGDIFAQKLDNRWFVYNYKVNENVKQTGKLKFNSLEMNVEFEPHTYGIFERISNGLKVNLNNFRTNKDSLWSNAQDANQAKKLPQLTKKGAIKWIEEHYIKDTQFGEKRVTKIVLRGIDKLPTIHSLSGTNNSYDQPSLNFDQKNHMVTITINSNGNLEFELHF”: “soluble”; for “MGSDKIHHHHHHMSKTRYYLEQCIPEMDDLVEKGLFTKNEVSLIMKKRTDFEHRLNSRGSSINDYIKYINYESNVNKLRAKRCKRILQVKKTNSLSDWSIQQRIGFIYQRGTNKFPQDLKFWAMYLNYMKARGNQTSYKKIHNIYNQLLKLHPTNVDIWISCAKYEYEVHANFKSCRNIFQNGLRFNPDVPKLWYEYVKFELNFITKLINRRKVMGLINEREQELDMQNEQKNNQAPDEEKSHLQVPSTGDSMKDKLNELPEADISVLGNAETNPALRGDIALTIFDVCMKTLGKHYINKHKGYYAISDSKMNIELNKETLNYLFSESLRYIKLFDEFLDLERDYLINHVLQFWKNDMYDLSLRKDLPELYLKTVMIDITLNIRYMPVEKLDIDQLQLSVKKYFAYISKLDSASVKSLKNEYRSYLQDNYLKKMNAEDDPRYKILDLIISKL”: “not soluble”; for “MEIEVVYQHSDFIIINKSEGISVHKDQEEQGLTELVAKQLNVPKVWLVHRLDKVTSGLLILALNAESAAEFSRLFSEHKIHKTYLALSNQKPKKKQGLIIGDMKKAREGAWKLCQTKDNPAITRFESVSCEPNLRLFILKPQTGKTHQLRVAMKSLGSPILGDGLYGKNTEKIDRTYLHATQLEFDYLNNFISVTCLPSQGQFWIKPTVFEQIQVYLTKPFLSKLEHHHHHH”: “soluble”.

As to “AIAGANEDQEMELEALRSIYEGDNSFRELSPVSFQYRIGEDGDPKAFLIEVSWTETYPQTAPVISMNAFFNNTISSAVKQSILAKLQEAVEVNLGTAMTYTLFEYAKDHKEQFMENHHPGNSATPVANIISVETPTTAPSSKKKEKKEQLSKAQKRKLADKTDHKGELPRGWNWVDVVKHLSKTGSKDDE”, the “soluble on expression in E. coli” value is “soluble”. Regarding “MKIEKINENKIKVTISIDDLLERNIDLDTLNYNTPAAQELFWDMMEQAEIQFGFDASDSQICVEAIPDPEEGFVIIITKLDEDGEFESIHKYIKNRFRKSDLRVRKRNSRVSSSIVIYFFNNFEDLCSVCQKLRDIYSGESTLYRLKGVYYLVLTKNSWSVANLRSFEPILSEFGTKVSNVSFYEGYLNEHGEKIIEYNAVETINDYFHR”, the “soluble on expression in E. coli” value is reported as “soluble”.

In the case of “MATSRMVQARVPEEIQNVASQVIQASGLTVSDVVRVLMTRIAQDKAIPSVLFQPNAETIAAFAEVDEGNLKKFHSVDELFDDLYADD”, the “soluble on expression in E. coli” value is given as “not soluble”. The result for “MEILSDMWKEKITFIGINIDDEKSWKKFSQKNIKWITLNDPKEAFGLYIRYKANGIPFYVLVTPDGRISDIWYGYNKDSLSERLKQGVK” reads “not soluble”; that for “MLRIAVDCMGGDYAPLEIVRGCILAAKELGYKIYLVGDKEQIIPILEKAKEHNNSLLEVVHAPDKVEMHEPPSNVLKKKNSSLYVAGMLVRKGEADGLVSAGNTGAVLAVGKFIVGAEEEVERPSIGVALPNPKGKTVLIDVGANVDCKPKHLVQFAVIGHTYAEEILGIKNPRVGILSIGEEEGKGNELVKETYPLLKATKLNFKGNAEGRDIYAGTFDVIVCDGFVGNVILKASESLGLAVVQMIKEEIKRSILAKLGALLLMPALNRFKKKADFAEYGGIPLLGAKKPVIITHGRANAKAIKNAVRVAGEFLNTDFNKKLVYNLKTLIPEGVKV”, “soluble”.
